assay: yeast display, Sf9 membrane polyspecificity reagent, FACS + sequencing; frameworks hold sequencing errors
Method in brief: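 After 36–48 hours of galactose induction, yeast (Saccharomyces cerevisiae BJ5465) displaying a synthetic nanobody library were stained at 4 °C for 1 hour with 10% biotinylated, detergent-solubilized Sf9 membrane reagent. Streptavidin microbeads enriched the stained cells before FACS sorting into low and high (top ~1%) gates on anti-HA and streptavidin fluorescence. Each clone's polyreactivity label reflects its gate of origin.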

Sequence	polyreactivity (PSR sort gate)
QVQLVESGGGLVQAGGSLRLSCAASGRTFYSYAMGWYRQAPGKERDLVASITRAGSTYYADSVKGRFTISRDNAKNTVYLQMNSLKPEDTAVYYCAATYRSDRRYGSHYRVDYWGQGTQVTVSS	high polyreactivity
QVQLVESGGGLVQAGGSLRLSCAASGIIFGRYTMGWYRQAPGKERELVAAITSSGITYYADSVKGRFTISRDNAKNTVYLQMNSLKPEDTAVYYCAAEYNWYDYWGQGTQVTVSS	low polyreactivity
QVQLVESGGGLVQAGGSLRLISAASGFIFKIYAMGWHRQAPGKERDLVAAISSGDNTNYADSVKGRFTISRDNAKNTVYLQMNSLKPEDTAVYYCADRAYRWRSFSTMYYWGQGTQVTVSS	high polyreactivity
QVQLVQSGGGLVQARGILRLSCPPSGINFWYNAMGWYSQAQGKERELVASISTGGRTYYADSVKGRFTFSRDNAKNTVYLQMNSLKPVDTAVYYCAAASRVGFLYYYWGQGSQVTVSS	low polyreactivity
QGQLVVSGGGLVQAGGSLRLSCAASGRTFSVNAMGGYRQAPGKERELVAAITSGASTNYADSVKGRFTISRDNAKNTVYLQMNSLKPEDTAVYYCAADATYGHVPAEYDYWGQGTQVTVSS	low polyreactivity
QVQLVESGGGLVQAGGSLRLSCAASGIIFRGYVMGWYRQAPGKERELVAAISTSGGRTSYADSVKGRFTISRDNAKNTVYLQMNSLKPEDTAVYYCAADSGYRYYTKSVGYDYWGQGTQVTVSS	high polyreactivity
QVQLVESGGGLVQAGGSLRLSCAASGRIFRYYAMGWYRQAPGKERELVAAITWRGDSTYYADSVKGRFTISRDNAKNTVYLQMNSLKPEDTAVYYCNKRWTDKYDSWGQGTQVTVSS	high polyreactivity
QDQLVESGGVLVQAGGSLRLSCADSGFSFANYVMGWYRQAPGKERELFAAITTPGGSTSYADSVKGRFTISRDNAKTNVYLQMPSLKPEDTAVYFCKKTTYYPSDYDYWGQGTQVTVSS	low polyreactivity
QVQLVESGGGLVQAGGSLRLSCAASGRIFLRNDMVWYRQAPGKERELVAGISSDGSTYYADSVKGRFTISRDNAKNTVYLQMNSVKREDTAVYDCAAERWGKPTVFQFWRPYDYWGLGTQVTVSS	low polyreactivity
QVQLVESGGGLVQAGGSIRLTCAASGSTFWEYVMGWYRQAPGKERELVAAINSGGRTYYADSVKGRFTISRDNAKNTVYLQMNSLKPEDTAVYYCAADTVYRTHHYAQHYYYWGQGTQVTVSS	high polyreactivity
QVQLVESGGGLVQAGGSLRLSCAASGSTLRFYAMGWYRPAPGKERELVAAISSSGSSTYYADSVKGRFTISRDNAKNTVYLQLNSLKPEDTAVYYCSGYGYWGQGTQVTVSS	high polyreactivity
QVHLLESGGGLVQAGGSLRLSCAASGRTFIRNAMGWYRQAPGKERELVASIRWSGGSTYYADSVKGRFTISRDNAKNTVYLQMNSLKPEDTAVYYCARRKQSFGSWPPSEPVADDYWGQGTQVTVSS	low polyreactivity
QVQLVESGGGLVQAGGSLRLSCADSGSIFWYYAMGWSRQAPGKETELVADITSTGGSTYYADSVKGRFTISRDYAKNTVYFQMNSLKPEVSAVYYCAAEACYHWYYSLGYWGQGTQVTVSS	high polyreactivity
QVQLVDSGGGLVQAGGSLRLSCATSGYTFKAYAMVWYRQAPGKERELVAGISRSGGSTYYADSVKGRFTISRDNAKNTVYLQINSLKPEDTAVYYCAADSFSCETVVPSVLEFDYWGQGTQVTLSS	low polyreactivity
QVQLVESGGGLVQAGGSLRLSCDASGIIFNTYAMGWYRQAPGKERELVAAISSSGGRTYYADSVKGRFTISRDYAKNTVYLQMNSLKPEDTAVYFCAADYRGGIRYYRGAAYNYWGQGTQVTVSS	high polyreactivity
QVQLVDSGGGLVQAGGSLRLTCAASGFIFGYNTMGWYRQAPGKERELVAAIDSGGSTNYADSVKGRFTISRDNAKNTDYLQMNSLKPEDTAVYYCARESDWWREFPYDYWGQGTQVNVSS	low polyreactivity
QVQLVESGGGLVQPGGSLRLSCAASGSIFGSYDMGWYRQAPGKERELVAAITYSVGTTYYADSVKGRFTISRDNAKNTVYLQMNSLKPEDNAVYYCAADFAPVGLPSPFAVSEGEDDYWGQGTQVTVSS	low polyreactivity

Source: the nanobody polyreactivity screen of Harvey et al. (2022)
